Assay results from IntAct's records for PubMed 17187077.

B1: Nuclear receptor subfamily 2 group C member 1 (Mus musculus), Q505F1 (parent)
chain: MATIEEIAHQIIDQQMGEIVTEQQTGQKIQIVTALDHSTQGKQFILANHEGSTPGKVFLTTPDAAGVNQLFFTSPDLSAPHLQLLTEKSPDQGPNKVFDLCVVCGDKASGRHYGAITCEGCKGFFKRSIRKNLVYSCRGSKDCVINKHHRNRCQYCRLQRCIAFGMKQDSVQCERKPIEVSREKSSNCAASTEKIYIRKDLRSPLAATPTFVTDSETARSAGLLDSGMFVNIHPSGIKTEPAMLMAPDKAESCQGDLSTLASVVTSLANLGKAKDLSHCGGDMPVVQSLRNGDTSFGAFHHDIQTNGDVSRAFDTLAKALTPGESSACQSPEEGMEGSPHLIAGEPSFVEKEGPLLSESHVAFRLTMPSPMPEYLNVHYIGESASRLLFLSMHWALSIPSFQALGQENSISLVKAYWNELFTLGLAQCWQVMNVATILATFVNCLHSSLQQDKMSPERRKSLMEHIFKLQEFCNSMVKLCIDGHEYAYLKAIVLFSPDHPGLENMELIERFQEKAYVEFQDYITRTYPDDTYRLSRLLLRLPALRLMNATITEELFFKGLIGNVRIDSVIPHILKMEPADYNSQIIGHSL

Variants of: B1
Conditions: with pias1_mouse Pias1, O88907
Chain of pias1_mouse Pias1, O88907 (O88907 whole entry): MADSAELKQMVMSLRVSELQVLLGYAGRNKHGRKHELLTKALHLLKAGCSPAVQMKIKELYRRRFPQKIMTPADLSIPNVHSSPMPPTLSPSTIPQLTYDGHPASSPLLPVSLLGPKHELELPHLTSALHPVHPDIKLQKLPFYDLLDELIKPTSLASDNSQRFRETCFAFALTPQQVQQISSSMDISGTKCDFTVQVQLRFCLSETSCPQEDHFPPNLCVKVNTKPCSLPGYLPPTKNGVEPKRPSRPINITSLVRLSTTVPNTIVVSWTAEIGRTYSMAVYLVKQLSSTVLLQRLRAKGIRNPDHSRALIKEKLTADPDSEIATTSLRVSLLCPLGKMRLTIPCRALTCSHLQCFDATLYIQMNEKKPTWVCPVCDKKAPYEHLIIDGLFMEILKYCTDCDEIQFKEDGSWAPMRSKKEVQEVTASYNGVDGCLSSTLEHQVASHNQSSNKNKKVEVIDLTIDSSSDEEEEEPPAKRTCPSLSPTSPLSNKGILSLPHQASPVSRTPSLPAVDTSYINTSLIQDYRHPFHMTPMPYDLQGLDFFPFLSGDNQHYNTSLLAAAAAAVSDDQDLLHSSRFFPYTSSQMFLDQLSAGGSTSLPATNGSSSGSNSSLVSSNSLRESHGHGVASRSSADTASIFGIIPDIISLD

| Variant | effect of a mutation on the interaction |
| --- | --- |
| MATIEEIAHQIIDQQMGEIVTEQQTGQKIQIVTALDHSTQGKQFILANHEGSTPGKVFLTTPDAAGVNQLFFTSPDLSAPHLQLLTEKSPDQGPNKVFDLCVVCGDKASGRHYGAITCEGCKGFFKRSIRKNLVYSCRGSKDCVINKHHRNRCQYCRLQRCIAFGMKQDSVQCERKPIEVSREKSSNCAASTEKIYIRKDLRSPLAATPTFVTDSETARSAGLLDSGMFVNIHPSGIATEPAMLMAPDKAESCQGDLSTLASVVTSLANLGKAKDLSHCGGDMPVVQSLRNGDTSFGAFHHDIQTNGDVSRAFDTLAKALTPGESSACQSPEEGMEGSPHLIAGEPSFVEKEGPLLSESHVAFRLTMPSPMPEYLNVHYIGESASRLLFLSMHWALSIPSFQALGQENSISLVKAYWNELFTLGLAQCWQVMNVATILATFVNCLHSSLQQDKMSPERRKSLMEHIFKLQEFCNSMVKLCIDGHEYAYLKAIVLFSPDHPGLENMELIERFQEKAYVEFQDYITRTYPDDTYRLSRLLLRLPALRLMNATITEELFFKGLIGNVRIDSVIPHILKMEPADYNSQIIGHSL [K238A] | decreasing interaction |
